Source: patent US20220125947A1 (published 2022)

T1: T cell receptor (TCR) Vγ9 (TRGV9) (human, UniProt Q99603 21-122)
T1 chain (looked up): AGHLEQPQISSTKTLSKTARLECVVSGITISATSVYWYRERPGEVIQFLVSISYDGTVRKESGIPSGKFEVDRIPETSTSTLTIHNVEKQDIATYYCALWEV

T2: T cell receptor (TCR) Vγ9 (TRGV9) (human, UniProt Q99603 21-122)
T2 sequence (looked up): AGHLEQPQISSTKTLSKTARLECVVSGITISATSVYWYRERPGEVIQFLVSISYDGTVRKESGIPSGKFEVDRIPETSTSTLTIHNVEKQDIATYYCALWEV


Target: T1, T cell receptor (TCR) Vγ9 (TRGV9)
Experiment: cell-based or functional assay
Wherever CD25+ (Vg9+ cells), flow staining is given: test concentration or dose not given here.
Wherever CD71+ (Vg9+ cells), flow staining is given: test concentration or dose not given here.
Wherever Granzyme B, Luminex (supernatant) is given: unit not given here.
Wherever IL6, Luminex (supernatant) is given: unit not given here.
Wherever TNFα, Luminex (supernatant) is given: unit not given here.

Row | Binder | CD25+ (Vg9+ cells), flow staining [%] | CD71+ (Vg9+ cells), flow staining [%] | Granzyme B, Luminex (supernatant) | IFNγ, Luminex (supernatant) | IL6, Luminex (supernatant) | TNFα, Luminex (supernatant) | Vg9 T cell %, flow staining [%]
1 | VG9B133 (antibody, human IgG1, kappa, V domains shown) VH: EVQLVESGGGLVKPGGSLRLSCAAAGFTFSNYDMNWVRQVPGKGLEWVSSISSSSSYIYYADSVKGRFTISRDNAKNSLYLQMNTLRAEDTAVYYCARDLGITGTTMDYYYGMDVWGQGTMVTVSS VL: not shown | 21.8 | 91.4 | 3480 | 1170 | 478 | 123 | 5.8
2 | VG9B430 (antibody, human IgG1, kappa, V domains shown) VH: EVQLLESGGGLVKPGGSLRLSCSASGFTFSSYDMNWVRQAPGKGLEWVSSISSSSSYIYYADSVKGRFTISRDNAKNSLYLQMNSLRAEDTAVYHCARDVGVTTDYYYYGMDVWGQGTMVTVSS VL: EIVLTQSPGTLSLSPGDRATLSCRASQSVASSYLAWYQQKPGQSPRLLIYGASSRATGIPDRFSGSGSGTDFTLTISRLEPEDFAVYYCQQYGSSPPYTFGQGTKLEIKR | 37.5 | 96.2 | 2520 | 1490 | 372 | 125 | 10.7
3 | VG9B69 (antibody, human IgG1, kappa, V domains shown) VH: EVQLVESGGGLVKPGGSLRLSCAASGFTFSSYDINWVRQAPGKGLEWVSSITSSSYYIYYADSVKGRFTISRDNAKNSLYLQMNSLRAEDTAVYYCARDLGVRGVDYYYYGLDVWGQGTMVTVSS VL: not shown | 40.4 | 97.7 | 3240 | 2070 | 591 | 1100 | 8.8

Further lines, results first:

Row | CD25+ (Vg9+ cells), flow staining [%] | CD71+ (Vg9+ cells), flow staining [%] | Granzyme B, Luminex (supernatant) | IFNγ, Luminex (supernatant) | IL6, Luminex (supernatant) | TNFα, Luminex (supernatant) | Vg9 T cell %, flow staining [%] | Binder
4 | 29.4 | 90.5 | 1420 | 305 | 294 | 2010 | 7.2 | VG9B98 (antibody, human IgG1, kappa, V domains shown) VH: EVQLVQSGGDLVKSGGSLRLSCAASGFTFSSYSMYWVRQAPGKGLEWVSSIGSSSTYIFYADSVKGRFTISRDNAMTSLYLQMNRLGAEDSAVYYCARDGELGPFEYWGQGTLVTVSS VL: EIVLTQSPGTLSLSPGERATLSCRASQSVSTSYLAWFQQKPGQAPRLLIFGTSSRATGIPDRFSGSGSGTDFTLTISRLEPEDFAVYHCLQYGRSPLTFGGGTKVDIKR
5 | 41.4 | 95.2 | 5290 | 2440 | 1090 | 4130 | 5.1 | VG9B104 (antibody, human IgG1, kappa, V domains shown) VH: EVQLVESGGGLVKPGGSLRLSCAASGFTFSVYSMNWVRQAPGKGLEWVSSIGSSSSYIFYADSVKGRFTISRDNAKNSLYLQMNSLRAEDTAVYYCGRDHDYGGLDYWGQGTLVTVSS VL: EIVLTQSPGTLSLSPGERATLSCRASQSVSSSYLAWYQQKPGQAPRLLIYGPSNRATDIPDRFSGTGSGTDFTLTISRLEPEDFAVYYCQQYGRSPLTFGGGTKVEIKR
6 | 30.6 | 94.1 | 3370 | 1050 | 359 | 136 | 13.8 | VG9B73 (antibody, human IgG1, kappa, V domains shown) VH: EVQLVQSGGGLVKPGGSLRLSCAASGFTFSNYDMNWVRQAPGKGLEWVSSISSSSSYIYYADSVKGRFTISRDNARNSLFLQMSSLRAEDTAVYYCAREIGVTGTTYYQDYGMDVWGQGTTVTVSS VL: EIVMTQSPGTLSLSPGERATLSCRASQSFSSNYLAWYQQKPGQAPRLLIYGASSRATGIPDRFSGSGSGTDFTLTISRLEPEDFALYYCQQYGSSPPFTFGQGTKVEIKR
7 | 37 | 98.1 | 4120 | 2000 | 613 | 390 | 5 | VG9B428 (antibody, human IgG1, kappa) heavy: not shown light: EIVMTQSPSSVSASVGDRVTITCRASQGINSWLAWYQQKPGNAPKLLIYAASSLQSGVPSRFSGIGSGTDFIFTISSLQPEDFASYYCQQANSFPWTFGQGTKVEIKRTVAAPSVFIFPPSDEQLKSGTASVVCLLNNFYPREAKVQWKVDNALQSGNSQESVTEQDSKDSTYSLSSTLTLSKADYEKHKVYACEVTHQGLSSPVTKSFNRGEC

target: T2, T cell receptor (TCR) Vγ9 (TRGV9); experiment: cell-based or functional assay

Row | Binder | CD25+ (Vg9+ cells), flow staining [%] | CD71+ (Vg9+ cells), flow staining [%] | Granzyme B, Luminex (supernatant) | IFNγ, Luminex (supernatant) | IL6, Luminex (supernatant) | TNFα, Luminex (supernatant) | Vg9 T cell %, flow staining [%]
8 | VG9B195 (antibody, human IgG1, lambda, V domains shown) VH: EVQLVESGGGLVKPGGSLRLSCAASGFTFSPYTMNWVRQAPGKGLEWVSSISSSSSYMYYADSVKGRFTISRDNAKNSLYLQMNSLRAEDTAVYYCARDGDLVGPTYYFDYWGQGTLVTVSS VL: SYELMQPPSVSVSPGQTASITCSGDKLGDKYACWYQQKPGQSPVLVIYQHNKRPSGIPERFSGSNSGKTATLTISGTQAMDEADYYCQAWDSTTVVFGGGTKLTVLG | 15.8 | 86.9 | 1060 | 303 | 166 | 61 | 3.7
9 | VG9B140 (antibody, human IgG1, kappa, V domains shown) VH: EVQLVESGGGLVKPGGSLRLSCAGSGFTFRSYDMNWVRQAPGKGLEWVSSISTSSGYIYYADSVKGRFTISRDNAKNSLSLQMNSLRAEDTAVFYCARDRGIAVAGDYYYGMDVWGQGTMVTVSS VL: not shown | 20.4 | 70.6 | 2160 | 796 | 602 | 3520 | 3.9
10 | VG9B414 (antibody, human IgG1, kappa) heavy: not shown light: EIVMTQSPSSVSASVGDRVTITCRASQGINSWLAWYQQKPGNAPKLLIYAASSLQSGVPSRFSGIGSGTDFIFTISSLQPEDFASYYCQQANSFPWTFGQGTRLEIKRTVAAPSVFIFPPSDEQLKSGTASVVCLLNNFYPREAKVQWKVDNALQSGNSQESVTEQDSKDSTYSLSSTLTLSKADYEKHKVYACEVTHQGLSSPVTKSFNRGEC | 24.8 | 88.1 | 1490 | 476 | 219 | 186 | 4
11 | VG9B429 (antibody, human IgG1, kappa) heavy: not shown light: DIQMTQSPSSVSASVGDRVTITCRASQGINSWLAWYQQKPGNAPKLLIYAASSLQSGVPSRFSGIGSGTDFIFTISSLQPEDFASYYCQQANSFPWTFGQGTRLEIKRTVAAPSVFIFPPSDEQLKSGTASVVCLLNNFYPREAKVQWKVDNALQSGNSQESVTEQDSKDSTYSLSSTLTLSKADYEKHKVYACEVTHQGLSSPVTKSFNRGEC | 25.8 | 91.6 | 2150 | 1250 | 816 | 583 | 3

Results, then the binder that gave them:

Row | CD25+ (Vg9+ cells), flow staining [%] | CD71+ (Vg9+ cells), flow staining [%] | Granzyme B, Luminex (supernatant) | IFNγ, Luminex (supernatant) | IL6, Luminex (supernatant) | TNFα, Luminex (supernatant) | Vg9 T cell %, flow staining [%] | Binder
12 | 32.4 | 93.3 | 3100 | 1600 | 761 | 6100 | 10.5 | VG9B54 (antibody, human IgG1, kappa, V domains shown) VH: EVQLVESGGGLVKPGGSLRLSCAASGFAFSSYSLTWVRQAPGKGLEWVSSISSSSSYIFYADSVKGRFTISRDNAKNSLYLQMNSLRAEDTAVYYCATDGELGPFDYWGQGTTVTVSS VL: EIVMTQSPGTLSLSPGERATLSCRASQSVSSSYLAWFQQKPGQAPRRLIYGASSRATGIPDRFSGSGSGTDFTLTISRLEPEDFAVYYCQQYGRSPLTFGGGTKVEIKR
13 | 50.9 | 98.7 | 1350 | 429 | 161 | 96 | 16.1 | VG9B121 (antibody, human IgG1, kappa, V domains shown) VH: EVQLVESGGGLVKPGGSLRLSCVASGFTFSDYAMDWVRQAPGKGLDWISSISSTSNYIFYADSVKGRFTISRDNAKNSLYLQMNSLRVEDSAVYYCANSYNWNYGGAFDIWGQGTMVTVSS VL: DIQMTQSPGTLSSSPGERATLSCRASQSVSSSYFAWYQQKPGRAPRLLIYGASSRATGIPDRFSGSGSGTDFTLTISRLEPEDFAVYFCQQYGRSPLTFGGGTKVEIKR
14 | 49.6 | 98.3 | 3010 | 1360 | 385 | 4910 | 5.2 | VG9B80 (antibody, human IgG1, kappa, V domains shown) VH: EVQLVQSGGGLVKSGGSLRLSCAASGFTFSTYSMNWVRQAPGKGLEWVSSISSSSSYIFYADSVKGRIIISRDNAKNSLYLQMNSVRADDTAVYYCAKDGELGVFDYWGQGTLVTVSS VL: EIVLTQSPGTLSLSAGERATLSCRASQSISSSYLAWYQQKPGQAPRVLIYGPSGRATGIPDRFRGSGSGTDFTLTISRLEPEDFAVYYCQQFGRSPLTFGGGTKVEIKR
15 | 37.9 | 95.8 | 3170 | 1150 | 375 | 5260 | 4.4 | VG9B46 (antibody, human IgG1, kappa, V domains shown) VH: EVQLVESGGGLVKPGGSLRLSCEASGFTFSINSMNWVRQAPGKGLEWVSSISSTSDYIFNADSVKGRFTISRDNAKNSLYLQMNSLRAEDTAVYYCVRDDVFGAFDIWGQGTMVTVSS VL: EIVLTQSPGTLSLSPGERATLSCRTSQSVSRSYLGWYQQKPGQPPRLLIFGSSSRATGIPDRFSGSGSGTDFTLTISRLEPEDFAVYYCQQYSRSPLTFGGGTKVDIKR
